Test results reported in US20210285960A1.

Legend:
[1] = molecular target: PL555-PA488 dual-labeled test antibody; test: cell-based or functional assay
[2] = molecular target: Fab488-Fc555 dual-labeled test antibody; test: cell-based or functional assay

increase in 570 nm emission signal (FRET, 470 nm excitation) [1]: 18%
increase in 570 nm emission signal (FRET, 470 nm excitation) [2]: 35%
Substance: CA125 TIPS factor (MUC16/CA125), Q8WXI7 1-14451
